The record followed here is article PMC12029569, “Exploring the G-Quadruplex Formation of AS1411 Derivatives”.

Common to all, as to conditions: label: 5'-Cy5; G-quadruplex
Data set [1] has as its target T1, NCL RBD2,3 (UniProt P19338 393-560). Description: fluorescence titration; Hill n 2.08; K100: 100 mM KCl, 10 mM lithium cacodylate pH 7.2; 100 nM Cy5-oligonucleotide pre-annealed, 5 min equilibration per protein addition; temperature not stated.
For data set [2], the target named is T2, NCL RBD1,2 (UniProt P19338 307-466). Description: fluorescence titration; Hill n 0.20; SD exceeds Kd; K100: 100 mM KCl, 10 mM lithium cacodylate pH 7.2; 100 nM Cy5-oligonucleotide pre-annealed, 5 min equilibration per protein addition; temperature not stated.
T2 sequence (P19338 307-466): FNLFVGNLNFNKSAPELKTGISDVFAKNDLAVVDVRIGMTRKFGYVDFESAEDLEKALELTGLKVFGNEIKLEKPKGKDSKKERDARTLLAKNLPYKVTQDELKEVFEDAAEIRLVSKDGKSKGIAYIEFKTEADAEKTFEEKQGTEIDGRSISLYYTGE
For data set [3], the target named is T2, NCL RBD1,2. Description: fluorescence titration; Hill n 0.24; K100: 100 mM KCl, 10 mM lithium cacodylate pH 7.2; 100 nM Cy5-oligonucleotide pre-annealed, 5 min equilibration per protein addition; temperature not stated.
The target of data set [4] is T2, NCL RBD1,2. Description: fluorescence titration; Hill n 0.33; K100: 100 mM KCl, 10 mM lithium cacodylate pH 7.2; 100 nM Cy5-oligonucleotide pre-annealed, 5 min equilibration per protein addition; temperature not stated.
Data set [5] has as its target T1, NCL RBD2,3. Description: fluorescence titration; Hill n 0.49; SD exceeds Kd; K100: 100 mM KCl, 10 mM lithium cacodylate pH 7.2; 100 nM Cy5-oligonucleotide pre-annealed, 5 min equilibration per protein addition; temperature not stated.
Data set [6] has as its target T1, NCL RBD2,3. Description: fluorescence titration; no measurable interaction; Hill fit not possible; up to 50 nM protein; K100: 100 mM KCl, 10 mM lithium cacodylate pH 7.2; 100 nM Cy5-oligonucleotide pre-annealed, 5 min equilibration per protein addition; temperature not stated.
Data set [7] deals with T2, NCL RBD1,2. Description: fluorescence titration; Hill n 0.31; SD exceeds Kd; K100: 100 mM KCl, 10 mM lithium cacodylate pH 7.2; 100 nM Cy5-oligonucleotide pre-annealed, 5 min equilibration per protein addition; temperature not stated.
Data set [8] deals with T2, NCL RBD1,2. Description: fluorescence titration; Hill n 1.89; K100: 100 mM KCl, 10 mM lithium cacodylate pH 7.2; 100 nM Cy5-oligonucleotide pre-annealed, 5 min equilibration per protein addition; temperature not stated.
The target in data set [9] is T1, NCL RBD2,3. Description: fluorescence titration; Hill n 0.54; K100: 100 mM KCl, 10 mM lithium cacodylate pH 7.2; 100 nM Cy5-oligonucleotide pre-annealed, 5 min equilibration per protein addition; temperature not stated.
In data set [10] the target is T2, NCL RBD1,2. Description: fluorescence titration; Hill n 0.37; main text prints 4.6 nM (conflict with Table S4); K100: 100 mM KCl, 10 mM lithium cacodylate pH 7.2; 100 nM Cy5-oligonucleotide pre-annealed, 5 min equilibration per protein addition; temperature not stated.

T1 sequence (P19338 393-560): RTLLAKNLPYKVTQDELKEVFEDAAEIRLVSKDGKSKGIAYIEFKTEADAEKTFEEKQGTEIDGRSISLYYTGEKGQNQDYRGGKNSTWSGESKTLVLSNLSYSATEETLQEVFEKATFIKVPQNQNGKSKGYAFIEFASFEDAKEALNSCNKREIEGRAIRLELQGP

As usually defined, the Kd is the free concentration of one partner at which half of the binding sites on the other are occupied at equilibrium, for simple one-to-one binding. Lower therefore signals tighter binding. For the molecule GGTGGTGGTGGTTTGGTGGTGGTGG (structured_DNA) [Cy5-AT14-T1], the results for the Kd in the data set with NCL RBD2,3 [1] and with NCL RBD1,2 [2] were 2.16 ± 0.37 nM and 1.4 nM, respectively.
Regarding TGGTGGTGGTGGTTTGGTGGTGGTGGT (structured_DNA) [Cy5-AT14T-T1], the Kd with NCL RBD1,2 [3] amounted to 3.39 ± 0.58 nM.
Consider GGTGGTGGTGGTTGGTGGTGGTGG (structured_DNA) [Cy5-AT14-T2], for which the results for the dissociation constant Kd with NCL RBD1,2 [4] and with NCL RBD2,3 [5] were 0.01 ± 0.01 nM and 5.37 ± 7.21 nM, respectively.
In the case of TGGTGGTGGTGGTTTTGGTGGTGGTGGT (structured_DNA) [Cy5-AT14T], the binding result in the data set with NCL RBD2,3 [6] is recorded as “no binding”. This molecule also gave a Kd in the data set with NCL RBD1,2 [7] of 8.34 ± 13.2 nM.
Turning to TGGTGGTGGTGGTTGGTGGTGGTGGT (structured_DNA) [Cy5-AT14T-T2], in the data set with NCL RBD1,2 [8], the affinity, expressed as Kd, was 1.48 ± 0.2 nM. Also, in the data set with NCL RBD2,3 [6], the binding result is “no binding”.
With GGTGGTGGTGGTTTTGGTGGTGGTGG (structured_DNA) [Cy5-AT14], the figures for the Kd with NCL RBD2,3 [9] and with NCL RBD1,2 [10] were 0.08 ± 0.01 nM and 0.46 ± 0.12 nM, respectively.
